Among the data in a protein production outcome set (Wang et al. 2014) are protein production values, retold here.

A short description of the data set: label from the status in PepcDB records.
With “MVKRTSHKQASCPVARPLDVIGDGWSMLIVRDAFEGLTRFGEFQKSLGLAKNILAARLRNLVEHGVMVAVPAESGSHQEYRLTDKGRALFPLLVAIRQWGEDYFFAPDESHVRLVERDSGQPVPRLQVRAGDGSPLAAEDTRVSRD”, the protein production result is listed as “not failed”. To “MNFLNENEKKITLIPPPEFVQYVGGHFEEVGKEFMQYFIEIGNLKSNETVLDVGCGIGRMAVPLMNYLSDDGTYYGFDLFNKGITWCKNNISTRRNNFHFEHVDIYNQFYNPDGKEDASQYKFPYEDESFDFIFLTSVFTHLLPKELEHYVREIARVLKKDGRCFITFFLINPESSYYLNAGLSPLGFYHQIDNCYVLNKDIPNFAVAYPEEDIRTLLNKYGLEMQTPPHYGSWCGRTEHTSYQDIILAQKISER” belongs “failed”; to “MIATTSQQSFNLLRTLAVQKASDFADEFYIYMLKDQEASLFLSSQQVHDRLHGSMSKWIADILTNTGDSLADLINHQKKIGQIHARIGIPVDLVERGARRLKWHLYEHIAQVADDKALCFDAMRFASISMDIAIEIMSKTYSQSHDLEHHHHHH”, “failed”; to “MSLTESARIDGVSLYEIVIPMKIPFQISSGTCYTRRSLVVEIREGDLFGYGESAPFEEPFYLGETLETTKVILKNHLLPMILGKEPLSIEEFNHLIKNGIRGNHFARCGVENAYWDLIAKKNKISLKAMIEKKMKNLGVKQEYLASNNYIESGAALGIPEDGRIETLIHQVEESLQEGYRRIKIKIKPGWDVEPLQETRRAVGDHFPLWTDANSSFELDQWETFKAMDAAKCLFHEQPLHYEALLDLKELGERIETPICLDESLISSRVAEFVAKLGISNIWNIKIQRVGGLLEAIKIYKIATDNGIKLWGGTMPESGLGARFLISLASFRGFVFPADVAASEKWYGKGNDLVENTMTDGKIYVPDEPGASFDMTLSHLEALGKKIWESQRGEGHHHHHH”, “not failed”. To “GEKTFTQRSRLFVGNLPPDITEEEMRKLFEKYGKAGEVFIHKDKGFGFIRLETRTLAEIAKVELDNMPLRGKQLRVRFACHSASLT” belongs “not failed”.

With “MYSDKKNILQLVALLKAHGVRKIVLCPGSRNAAIVHTLANIEDFTCYSVTDERSAGFFAIGLSLQGGGPAAVCCTSGSALLNLHPAVAEAFYQQVPLIVISADRPAAWIGQMDGQTLPQPHVFGTLVKMSVNLPEVHTEEDEWFCNRLINEAILETTHHGKGPVHINVPISEPIYRFTAKTLPEVRVITRYQGL”, the protein production result is “failed”. The result for “MLIVGLNGSPKKDGNTAFLVREGLAAAAAAGAETALIHIADAMADQKIPYCTQCSNPCQGACSRHNRLGEAFDLLRRADGLLLGSPVYFGSVSAQLKAFWDKSRILRKEKALLNVVGAGVTVGGARFGGQETTMKALFDMMLVQGMILVGDGHTEADCGHQGSCGQAPASSDEFAIRRVRLAGRRLAEVAAATMTLRRHRA” reads “failed”; that for “LENCVFCKIIKRELPSTIYYEDERVIAIKDINPAAPVHVLIIPKEHIANVKEINESNAQILIDIHKAANKVAEDLGIAEKGYRLITNCGVAAGQTVFHLHYHLLGGVDMGPKIL”, “not failed”.

Consider “MLEMIYFAVVAIVGFFFYRKMNGKPMFGFKKKGKSQGGVEKRTAEKNGKKNKKNTPATEEIDEDNVDFFSAFVEDIKEVENHMIRYHDDTFVLIAEAHPVNYYLLSNAEQEAIDIKIESWLTTLEFNTKVYIQSKFVDLTDPVRKMTETMKGAKDLTPETVLYGQEVIDNLEYWQRSQPRYEQKRYLIYPYKVDISTITADTEEELEEKIVDKAFNELYRRYNASRNLLSKAKISVEMLTKDKLIELLYVAFNRRKAVKARFQDLIENENFSLYSTGETNERKLELMKKVLAEEKAEKSNNGVA”, for which the protein production result is reported as “failed”.

On to “MAVRKLGVLTSGGDCPGLNAVIRAIARHAVGNYGWELWGIAYATQGLLKRQAIALSPHHFDRQSLDPLLCSGGTILGSINRGDTLAHQAEILAGYQELGLDALIGIGGDGSLAILRQLAEAGRWQFIGIPKTIDNDVALTERAIGFDTAIHTVAEALLSLGSTAASHDRIMIAEVMGRQSGHLALQGGIAGGADVILLPEIPYRLLELCHYLQQLRDRWQRRYAVIAIAEGTHHPPEVTQGPGSLGEQLVQAITAQDPTLDARVTVLGHVQRGGNPVASDRLLATQMGYAAVERLAAGASGEMMAWQGGRVVSVPLEAVCLQSPTLVDPHSPLVDTAAGLGIFLGDRSLTPWRGSACPTH”, for which the protein production result is reported as “failed”. The result for “MSLHFQILLWLSILFIIAGTILLVTMLKTKKEERKESYLGFTVIFLIFGFAILIYTFIFGIL” reads “failed”. Consider “MSRDDNGWSKLYPDLLRSIFESLSCLDFHRAGTVCSNWYAVSRSCPLYPWRIVFRGKNSVLFDPIQDKIYTKNLLGIDLSKIHCLASYGNWILIVDPRLDFYLLNVFTRETINLPSLESSLRGDRPFRFIRNDDESGYFLELYGTKFLLTWNDFRFEKTAILWVNGRNGDYVVAWAIKQFYIFSYKKIGNDDDDKRWSITCTQCEDMAYKDNKLYVYTFDHYINILDFSGNSPKEPMEENPYLSHPFSFVDAIYKLRLAVTREGKVLIVLSLVGLDKKICIYKLNLKIGDWEIVESLGDEMLIFGHGVTIRAPDKDISGGGLKSDSICFLYDDYLSDHYLTMKRQPICGVFDLATSTITWHTRLEDLSSKICWFVPGCA”, for which the protein production result was “failed”. To “MTCEGRRTMTQPISLGHRMSLIDLYDLRMPQRTGTYVLHEENLAIIETGPSPSVPHLLAGLKALHIDPADIRYIIVTHIHLDHAGGVGVLLEHCPNATVIVHPKGKRHLADPSRLIAGAKAVYGEQFDALFDPIVPVPEERLLVKEDGETLVLSAERTLTFYDTPGHANHHFSIYDSYSGGVFTGDTIGVFYPQLQEAGLAFCLPSTSPNQFNPEAMKQSAERLEKLNPTRIYFGHFGALDQPEEAFRQLRFWLPKFVAAGKEVIARHPEAPAAEQAKAVTKLLHNDITAFLNECSIPASSPVYKVIELDLQVCAMGIIDYWRKQRLEHHHHHH” belongs “not failed”; to “MTTIFIEKATILDAEKLTEIMTRTFDEEEKRWLCGQGDVIDYNIQPPGYSSVEMMRYSIEELDCYKVIMDGKIIGGIIVTISGKSYGRIDRIFVEPVYQGKGIGSYVIKLIEEEYPSIRIWDLETSSRQLNNHHFYKKMGYETIFKSEDEYCYVKRIT”, “failed”; to “MLRGLRIIAENKIGVLRDLTTIIAEEGGNITFAQTFLIKHGEHEGKALIYFEIEGGDFEKILERVKTFDYIIEIEEEESFERVFGKRVIILGGGALVSQVAIGAISEADRHNLRGERISVDTMPVVGEEEIAEAVKAVSRLHRAEVLVLAGGIMGGKITEEVKKLRKSGIRVISLSMFGSVPDVADVVISDPVMAGTLAVMHISEKAKFDLDRVKGRRI”, “not failed”. Take “KRASSKWLVCIGTSPSSAKLIRWTARTAEAFRAPWTALYIENEENDYMTKAEKKCLRETMELAERLGAEIVTLAGHDIAETVAEYARLTGVTNIVVGKSRRRMGLRSLFEEDFEDRLITHLDNVDMHIIP”: the protein production result was “failed”. The result for “GEEDWVLPSEVEVLESIYLDELQVIKGNGRTSPWEIYITLHPATAEDQDSQYVCFTLVLQVPAEYPHEVPQISIRNPRGLSDEQIHTILQVLGHVAKAGLGTAMLYELIEKGKEILTDNNIPHGQCVICLYGFQEKEAFTKTPCYHYFHCHCLARY” reads “failed”.

For the sequence “MKRERSDFEESLKNIDIAKCLMILAQTSMVKQIGLNQHTESHTSNQFECKTCNKRFSSFQALGGHRASHKKPKLTVEQKDVKHLSNDYKGNHFHKCSICSQSFGTGQALGGHMRRHRSSMTVEPSFISPMIPSMPVLKRCGSSKRILSLDLNLTPLENDLEYIFGKTFVPKIDMKFVL”, the protein production result is “failed”. The result for “MKSLATDMTEGNVSKHLIKFAIPLILGNLFQLTYNASDSIIVGRFVGKNALAAVGIANPIMNIVMFFIVGICLGASVLMSEYYGAGNVKKLRREISTTVIAGFIFTVLIIIICVIFTEPILGLVKTPKEIIPEAAIYLRIIFISLIFTFFYNIYAAALRSIGDSKNPLLFLMISAVLNVVMDIVFVVWLKMGVAGSAIATSVAEMMSCVFCIVYVHFKIPILKFSFKDMVIDKGLLRSTVNYSWATAMQQTCLYVGKFMVQGAVNPLGVNSIAAFNAVNRVDDFAFAPEQSISNAMTTFLAQNRGANKYKRIKKGFLTGMKLETLYWCILVGIVYLGSTAIMKLFVSGSEVKVISIGSYYLKLMAFFYLLPSWTNGVQGYFRGMGDMKITLRSTFSQIVGRVAFSYILAPRIGMVGIAFSCLGGWIVMLAYEVPCLIKYRRNFNNKLSESSI” reads “failed”; that for “MNRISVVILNWNGCEMLRSFLPSVLRYSEAEGVEVCVADNGSTDQSVEMLRREFPSVRRILLDGNHGFADGYNLALRQVEAEYVVLLNSDVEVTGQWLQPMAAYLDAHPEVAACQPKIRSWRQKEWFEYAGAAGGFIDRYGYPFCRGRVMGVVEADRGQYDTVLPIFWATGAAMFIRLADYREAGGLDGRFFAHMEEIDLCWRLRARGRGIVCIPQSVVYHVGGATLKKENPHKTFLNFRNNLVMLYKNLPDRELAGVMRVRCWLDYIAAATFALKGQPANAKAVVRARREFKLLRDSFRDARAENLRKTSSHFIPERIKSSILVQFYVKGRKFFSQLSDLKG”, “failed”; that for “RPDVSRQSQFHTMALVNLSAKMIESCYFLRHFEQQWLLRFHLQAESVGLFSEGLLAFDGDGRICAANQSALNLLGTVRGGVLGKPLECFFACSHDEMFSRATPGG”, “failed”. With “MTLATATNEHLANISNTLIYSAMAVYTLAFFAYIAEWLFGSRSKVGRTAAALTHKTAAKAPAVTVKSAGGTAVLDRPQVVTRSAPGARDVPDGPGAHGGDEQGDLYGRIAVSLTVLAFAVEAAGVVARALSVQRAPWGNMYEFNITFSTVAVGVYLALLALKKNIRWLGLPLVTTVLLDLGLAVTVLYTASDQLVPALHSYWLYIHVSTAILCGAVFYVGAVGALLYLFKDSYENKLATGGQPGRFATSVMERLPASASLDKFSYRVNAAVFPLWTFTIIAGAIWAGDAWGRYWGWDPKETWAFITWVAYACYLHARATAGWKGRKAAYIALIAFACWLFNYYGVNIFVSGKHSYAGV”, the protein production entry is listed as “failed”. To “MESTLSASNMQDPSSSPLEKCLGSANGNGDLDSEEGSSLEETGFNWGEYLEETGASAAPHTSFKHVEISIQSNFQPGMKLEVANKNNPDTYWVATIITTCGQLLLLRYCGYGEDRRADFWCDVVIADLHPVGWCTQNNKVLMPPDAIKEKYTDWTEFLIRDLTGSRTAPANLLEGPLRGKGPIDLITVGSLIELQDSQNPFQYWIVSVIENVGGRLRLRYVGLEDTESYDQWLFYLDYRLRPVGWCQENKYRMDPPSEIYPLKMASEWKCTLEKSLIDAAKFPLPMEVFKDHADLRSHFFTVGMKLETVNMCEPFYISPASVTKVFNNHFFQVTIDDLRPEPSKLSMLCHADSLGILPVQWCLKNGVSLTPPKGYSGQDFDWADYHKQHGAQEAPPFCFRNTSFSRGFTKNMKLEAVNPRNPGELCVASVVSVKGRLMWLHLEGLQTPVPEVIVDVESMDIFPVGWCEANSYPLTAPHKTVSQKKRKIAVVQPEKQLPPTVPVKKIPHDLCLFPHLDTTGTVNGKYCCPQLFINHRCFSGPYLNKGRIAELPQSVGPGKCVLVLKEVLSMIINAAYKPGRVLRELQLVEDPHWNFQEETLKAKYRGKTYRAVVKIVRTSDQVANFCRRVCAKLECCPNLFSPVLISENCPENCSIHTKTKYTYYYGKRKKISKPPIGESNPDSGHPKPARRRKRRKSIFVQKKRRSSAVDFTAGSGEESEEEDADAMDDDTASEETGSELRDDQTDTSSAEVPSARPRRAVTLRSGSEPVRRPPPERTRRGRGAPAASSAEEGEKCPPTKPEGTEDTKQEEEERLVLESNPLEWTVTDVVRFIKLTDCAPLAKIFQEQDIDGQALLLLTLPTVQECMELKLGPAIKLCHQIERVKVAFYAQYAN” belongs “failed”.
